The target of the assay is T1, Myc-α-actinin2, full length, expressed in HEK293 cells (mouse, UniProt Q9JI91 1-894).
T1 construct: α-actinin2, cloned by RT-PCR from RNA of neonatal mouse hearts into pAdlox (pAdlox-Myc-α-actinin2), full length; also called Myc-tagged full-length α-actinin2; source: HEK293 cells, exogenous expression, in lysate (co-IP); purified from HEK293 cells (BLI)
Description: BLI; Octet RED384, 30 °C; biotinylated anti-Myc antibody on streptavidin biosensors captures Myc-α-actinin2 (10 μg/ml, 100 nM); HA-cMLCK in solution, two-fold dilutions from 14 to 1.75 μg/ml; 20 mM Tris, 150 mM NaCl, 0.002% Tween, pH 7.3; global fit, 2:1 heterogeneous ligand analysis. The conditions noted are these: both partners purified. On the technique in general: Biolayer interferometry detects binding as a change in optical thickness at a sensor tip.

Data on 1 molecule can be found in publication PMC6715661, “Cardiac MLC2 kinase is localized to the Z-disc and interacts with α-actinin2” (Scientific Reports, 2019).

T1 sequence (Q9JI91 whole entry): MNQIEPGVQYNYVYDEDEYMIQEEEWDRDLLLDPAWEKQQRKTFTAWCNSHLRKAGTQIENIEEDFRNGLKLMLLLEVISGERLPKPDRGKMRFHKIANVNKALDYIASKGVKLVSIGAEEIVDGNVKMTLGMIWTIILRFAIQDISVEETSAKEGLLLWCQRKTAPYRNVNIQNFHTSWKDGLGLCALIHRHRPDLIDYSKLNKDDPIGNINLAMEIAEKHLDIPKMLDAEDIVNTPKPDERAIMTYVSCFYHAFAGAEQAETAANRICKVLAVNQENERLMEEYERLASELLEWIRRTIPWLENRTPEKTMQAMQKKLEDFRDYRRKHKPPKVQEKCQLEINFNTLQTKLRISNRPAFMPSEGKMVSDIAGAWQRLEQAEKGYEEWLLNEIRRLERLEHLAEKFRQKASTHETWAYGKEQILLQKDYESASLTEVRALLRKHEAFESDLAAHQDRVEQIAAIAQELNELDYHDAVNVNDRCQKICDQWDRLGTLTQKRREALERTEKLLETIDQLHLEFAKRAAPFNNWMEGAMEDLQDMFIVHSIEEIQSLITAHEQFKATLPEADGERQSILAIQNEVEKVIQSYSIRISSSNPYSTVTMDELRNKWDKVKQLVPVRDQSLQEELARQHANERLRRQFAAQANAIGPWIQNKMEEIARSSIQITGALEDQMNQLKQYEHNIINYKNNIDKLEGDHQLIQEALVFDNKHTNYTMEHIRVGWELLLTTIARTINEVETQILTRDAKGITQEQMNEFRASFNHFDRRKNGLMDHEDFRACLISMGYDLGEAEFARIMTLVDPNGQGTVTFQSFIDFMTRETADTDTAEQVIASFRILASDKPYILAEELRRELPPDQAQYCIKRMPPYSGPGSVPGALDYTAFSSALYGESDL

B1: HA-cMLCK, full length, expressed in HEK293 cells (enzyme, mouse, UniProt Q3UIZ8 1-795, looked up)
chain: MSGVSEEDPEGLAPQGLPALGGACLATMDKKLNVLTEKVDRLLHFQEDVTEKLQCVCQGMDHLEQDLHRLEASRELSLAGSGSTPPTTAQAAWPEVLELVRAVRQEGAQHGARLEALFKMVVAVDRAITLVGSTFQNSKVADFIMQGTVPGRKGSLADGPEENKEQAEVAGVKPNHVLTTGGVQADASRTLWEESQKEDIPVRTVEGLPLIINTSLKGADLTQAGASLRQGVEVLGPGQVPLPTEAESRLPETASENTGATLELSVAIDRISEVLTSLKMSQGGGQETSSSKPDCWLSEEAMRLSSGPLPQPLGPLTPDSDIHSGDALPRIPINMQEMATPGELLETQSGSPIGSAEAPGLGTVLEDQIPKGARPFPPLPKRSSNNGGMSAEEEIGSGAEPMRGPSLATRDWRDETVGTTDLQQGIDPGAVSPEPGKDHAAQGPGRTEAGRLSSAAEAAIVVLDDSAAPPAPFEHRVVSIKDTLISAGYTVSQHEVLGGGRFGQVHRCTERSTGLALAAKIIKVKNVKDREDVKNEVNIMNQLSHVNLIQLYDAFESKSSFTLIMEYVDGGELFDRITDEKYHLTELDVVLFTRQICEGVHYLHQHYILHLDLKPENILCVSQTGHQIKIIDFGLARRYKPREKLKVNFGTPEFLAPEVVNYEFVSFPTDMWSVGVITYMLLSGLSPFLGETDAETMNFIVNCSWDFDADTFKGLSEEAKDFVSRLLVKEKSCRMSATQCLKHEWLSHLPAKASGSNVRLRSQQLLQKYMAQSKWKKHFHVVTAVNRLRKFPTCP
notes: cardiac myosin light chain kinase (cMLCK), mouse, full length (residues to 795 by the printed deletion constructs); also called HA-MLCK; HA-full-length cMLCK; source: HEK293 cells, exogenous expression, in lysate (co-IP); purified (BLI)
The Kd is the free concentration of one partner at which half of the binding sites on the other are occupied at equilibrium, for simple one-to-one binding. One may read the koff as a measure of how fast the partners let go of each other. Read a low koff as a long-lived complex. Usually kon stands for the second-order rate constant of association. In turn, B1 displayed a dissociation constant (Kd) of 13.4 nM, a koff of 0.000341 s⁻¹ and a kon of 25800 M⁻¹ s⁻¹.
